Results taken from patent US20240279310A1 (ALPINE IMMUNE SCIENCES, published 2024).
Like-named read-outs stand apart in the source and are kept apart here.

Legend:
Experiment in all cases: cell-based or functional assay
[1] = target: T1, recombinant human APRIL (Tonbo Biosciences) (human, UniProt O75888 105-250, limits assumed)
T1 sequence (looked up): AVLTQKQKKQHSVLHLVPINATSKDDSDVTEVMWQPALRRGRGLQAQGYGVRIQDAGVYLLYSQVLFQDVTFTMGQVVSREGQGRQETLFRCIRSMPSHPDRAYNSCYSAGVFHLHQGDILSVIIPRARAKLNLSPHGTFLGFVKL

[2] = target: T2, recombinant human BAFF (BioLegend) (human, UniProt Q9Y275 134-285)
[3] = target: T3, recombinant mouse BAFF (R & D Systems) (mouse, UniProt Q9WU72 127-309)
T3 sequence (Q9WU72 127-309 limits assumed): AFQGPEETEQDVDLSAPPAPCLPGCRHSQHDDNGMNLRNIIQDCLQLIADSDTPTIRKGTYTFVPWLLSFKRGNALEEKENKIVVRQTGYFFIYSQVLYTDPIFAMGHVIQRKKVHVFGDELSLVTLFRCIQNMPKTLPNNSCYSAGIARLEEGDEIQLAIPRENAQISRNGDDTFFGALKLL

[4] = target: T1, recombinant human APRIL (Tonbo …); remark: listed apart in the source
[5] = target: T2, recombinant human BAFF (BioLegend); remark: listed apart in the source
[6] = target: T1, recombinant human APRIL (Tonbo …); remark: listed apart in the source
rat BAFF = rat BAFF (rat)
[7] = target: T4, recombinant mouse APRIL (ProSci Incorporated) (mouse, UniProt Q9D777 96-241, limits assumed)
T4 sequence (looked up): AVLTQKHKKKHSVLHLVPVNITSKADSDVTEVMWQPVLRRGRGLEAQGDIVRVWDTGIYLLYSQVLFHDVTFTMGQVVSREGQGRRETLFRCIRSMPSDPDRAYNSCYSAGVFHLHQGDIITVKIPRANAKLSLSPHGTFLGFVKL

rat APRIL = target: T5, rat APRIL (rat, UniProt A0A8J8XC20 96-241)
T5 sequence: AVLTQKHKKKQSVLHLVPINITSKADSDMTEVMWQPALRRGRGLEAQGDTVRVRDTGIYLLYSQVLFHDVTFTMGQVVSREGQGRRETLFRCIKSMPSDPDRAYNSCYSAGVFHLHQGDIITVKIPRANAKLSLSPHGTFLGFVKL

cynomolgus monkey APRIL = cynomolgus monkey APRIL (cynomolgus monkey)
[8] = target: T3, recombinant mouse BAFF (R & D Systems); remark: listed apart in the source
[9] = target: T2, recombinant human BAFF (BioLegend); remark: listed apart in the source
cynomolgus monkey BAFF = cynomolgus monkey BAFF (cynomolgus monkey, UniProt A0A2K5V2X4 134-285)
[10] = target: T2, recombinant human BAFF (BioLegend); remark: listed apart in the source
[11] = target: T1, recombinant human APRIL (Tonbo …); remark: listed apart in the source
[12] = target: T2, recombinant human BAFF (BioLegend); remark: listed apart in the source
[13] = target: T1, recombinant human APRIL (Tonbo …); remark: listed apart in the source
[14] = target: T2, recombinant human BAFF (BioLegend); remark: listed apart in the source
[15] = target: T1, recombinant human APRIL (Tonbo …); remark: listed apart in the source
[16] = target: T2, recombinant human BAFF (BioLegend); remark: listed apart in the source
[17] = target: T4, recombinant mouse APRIL (ProSci …); remark: listed apart in the source
[18] = target: T2, recombinant human BAFF (BioLegend); remark: listed apart in the source
[19] = target: T1, recombinant human APRIL (Tonbo …); remark: listed apart in the source

Binder	IC50 (read off the curve) [2] [nM]	IC50 (read off the curve) [3] [nM]	IC50 (nM) APRIL [13] [nM]	IC50 APRIL (Δ TACI 30-110-Fc) [13] [ratio]	IC50 (nM) BAFF [14] [nM]	IC50 BAFF (Δ TACI 30-110-Fc) [14] [ratio]	APRIL IC50 (pM) [15] [pM]	APRIL IC50 (Δ WT) [15] [ratio]	BAFF IC50 (pM) [16] [pM]	BAFF IC50 (Δ WT) [16] [ratio]	IC50 (read off the curve) [18] [nM]	also measured
26 TACI CRD2-Fc (TACI vTD SEQ ID NO:26, K77E/F78Y/Y102D; Fc fusion SEQ ID NO: 167) (Fc fusion) SLSCRKEQGEYYDHLLRDCISCASICGQHPKQCADFCENKLRSGSGGGGSEPKSSDKTHTCPPCPAPEAEGAPSVFLFPPKPKDTLMISRTPEVTCVVVDVSHEDPEVKFNWYVDGVEVHNAKTKPREEQYNSTYRVVSVLTVLHQDWLNGKEYKCKVSNKALPAPIEKTISKAKGQPREPQVYTLPPSRDELTKNQVSLTCLVKGFYPSDIAVEWESNGQPENNYKTTPPVLDSDGSFFLYSKLTVDKSRWQQGNVFSCSVMHEALHNHYTQKSLSLSPG	~2	~1	179	0.05	1220	0.21	9210	0.75	1550	0.84	–	IC50 (read off the curve) [1]: ~0.6 nM; IC50 (pM) APRIL [4]: 1760 pM; IC50 (pM) BAFF [5]: 1340 pM; APRIL IC50 (nM), signal inhibition in Jurkat/NF-κB/TACI cells [6]: 3.4 nM; BAFF IC50 (nM), signal inhibition in Jurkat/NF-κB/TACI cells (rat BAFF): 3.8 nM; APRIL IC50 (nM), signal inhibition in Jurkat/NF-κB/TACI cells [7]: 24.5 nM; APRIL IC50 (nM), signal inhibition in Jurkat/NF-κB/TACI cells (rat APRIL): 22.7 nM; APRIL IC50 (nM), signal inhibition in Jurkat/NF-κB/TACI cells (cynomolgus monkey APRIL): 3.3 nM; BAFF IC50 (nM), signal inhibition in Jurkat/NF-κB/TACI cells [8]: 15.2 nM; BAFF IC50 (nM), signal inhibition in Jurkat/NF-κB/TACI cells [9]: 2.8 nM; BAFF IC50 (nM), signal inhibition in Jurkat/NF-κB/TACI cells (cynomolgus monkey BAFF): 1.9 nM; IC50 value [10]: 0.078 mg/L; IC50 (nM) APRIL [11]: 214 nM; IC50 APRIL (Δ TACI 30-110) [11]: 0.05 ratio; IC50 (nM) BAFF [12]: 1270 nM; IC50 BAFF (Δ TACI 30-110) [12]: 0.28 ratio
13 TACI CRD2-Fc, WT TACI (68-110)-Fc (TACI 68-110, SEQ ID NO: 13, TACI-Fc SEQ ID NO: 171) (Fc fusion) SLSCRKEQGKFYDHLLRDCISCASICGQHPKQCAYFCENKLRSGSGGGGSEPKSSDKTHTCPPCPAPEAEGAPSVFLFPPKPKDTLMISRTPEVTCVVVDVSHEDPEVKFNWYVDGVEVHNAKTKPREEQYNSTYRVVSVLTVLHQDWLNGKEYKCKVSNKALPAPIEKTISKAKGQPREPQVYTLPPSRDELTKNQVSLTCLVKGFYPSDIAVEWESNGQPENNYKTTPPVLDSDGSFFLYSKLTVDKSRWQQGNVFSCSVMHEALHNHYTQKSLSLSPG	~3	~5	369	0.1	1330	0.23	12300	1	1850	1	~2	IC50 (read off the curve) [17]: ~0.7 nM
7 TACI CRD1/CRD2-Fc (Fc fusion) TACI vTD-linker-Fc chain: VAMRSCPEEQYWDPLLGTCMSCKTICNHQSQRTCAAFCRSLSCRKEQGKFYDHLLRDCISCASICGQHPKQCDYFCENKLRSGSGGGGSEPKSSDKTHTCPPCPAPEAEGAPSVFLFPPKPKDTLMISRTPEVTCVVVDVSHEDPEVKFNWYVDGVEVHNAKTKPREEQYNSTYRVVSVLTVLHQDWLNGKEYKCKVSNKALPAPIEKTISKAKGQPREPQVYTLPPSRDELTKNQVSLTCLVKGFYPSDIAVEWESNGQPENNYKTTPPVLDSDGSFFLYSKLTVDKSRWQQGNVFSCSVMHEALHNHYTQKSLSLSPG	–	–	–	–	–	–	–	–	–	–	~2	IC50 (read off the curve) [19]: ~3 nM
